According to article PMC2954210, “Structure of an essential bacterial protein YeaZ (TM0874) from Thermotoga maritima at 2.5 Å resolution” (Acta Crystallographica Section F: Structural Biology and …, 2009):

Target: the molecule itself
Assay: SEC-MALS; Superdex 200 column coupled with miniDAWN static light-scattering and Optilab refractive-index detectors; 20 mM Tris-HCl pH 7.9, 150 mM NaCl, 0.02% sodium azide

B1: YeaZ (TM0874) from Thermotoga maritima (natural protein, UniProt Q9WZX7 1-206, looked up)
chain: MNVLALDTSQRIRIGLRKGEDLFEISYTGEKKHAEILPVVVKKLLDELDLKVKDLDVVGVGIGPGGLTGLRVGIATVVGLVSPYDIPVAPLNSFEMTAKSCPADGVVLVARRARKGYHYCAVYLKDKGLNPLKEPSVVSDEELEEITKEFSPKIVLKDDLLISPAVLVEESERLFREKKTIHYYEIEPLYLQKSIAELNWEKKKRG
modifications: selenomethionine derivative
notes: YeaZ (TM0874), Thermotoga maritima, full-length protein, residues 1-206; Swiss-Prot Q9WZX7; Cloned into plasmid pMH4; In the crystal model residues 1-193 (chain A) and 0-187 (chain B) are ordered; residue 0 is the last residue of the His tag; also called TmYeaZ; His-tagged SeMet-TmYeaZ; source: E. coli GeneHogs, selenomethionine-containing medium, purified (nickel-chelating resin, Resource Q)
  stoichiometry N: 2
